Patent US20190292266A1 (NAVIGO PROTEINS, published 2019)

Biological target: T1, CD3 (Example 7)
T1 construct: Partner of the 145-2C11 Fab and its fusions
Test: SPR, biotinylated CD3 on SA chip, Langmuir 1:1
Protocol: For SPR-analysis of PD1/CD3, a CM5 sensor Chip (GE Healthcare) with immobilized target PD1 (about 800 RU) was prepared. CD3 was 10 times biotinylated and immobilized on SA coupled sensor chip (GE Healthcare) of about 200 RU. Specific binding of biotin and streptavidin provides a strong interaction of the target protein on the chip. Injection of free biotin blocks unbound streptavidin avoiding unspecific interaction during measurement. Determination of dissociation constant and data evaluation was equal to Example 6.

T1 sequence (P22646 22-108): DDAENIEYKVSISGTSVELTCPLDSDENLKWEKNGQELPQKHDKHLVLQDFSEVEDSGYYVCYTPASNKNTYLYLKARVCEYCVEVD

- Kd: 13.4 nM
- koff: 0.00296 s⁻¹
- kon: 221000 M⁻¹ s⁻¹
B1: 145-2C11 Fab Fragment (Fab, V domains shown)
VH: EVQLVESGGGLVQPGKSLKLSCEASGFTFSGYGMHWVRQAPGRGLESVAYITSSSINIKYADAVKGRFTVSRDNAKNLLFLQMNILKSEDTAMYYCARFDWDKNYWGQGTMVTVSS
VL: DIQMTQSPSSLPASLGDRVTINCQASQDISNYLNWYQQKPGKAPKLLIYYTNKLADGVPSRFSGSGSGRDSSFTISSLESEDIGSYYCQQYYNYPWTFGPGTKLEIKR
notes: also called PID 38; CD3 specific Fab fragment
